Experiments:
[1] = target: α4YFP nAChR subunit (mouse) (UniProt O70174); experiment: pixel-by-pixel sensitized emission FRET (NFRET), whole-cell ROI, N2a cells
[2] = target: α4YFP nAChR subunit (mouse) (UniProt O70174); experiment: pixel-by-pixel sensitized emission FRET, Gaussian fit of the NFRET distribution, N2a cells

Sequence of α4YFP nAChR subunit (mouse) (O70174 31-629): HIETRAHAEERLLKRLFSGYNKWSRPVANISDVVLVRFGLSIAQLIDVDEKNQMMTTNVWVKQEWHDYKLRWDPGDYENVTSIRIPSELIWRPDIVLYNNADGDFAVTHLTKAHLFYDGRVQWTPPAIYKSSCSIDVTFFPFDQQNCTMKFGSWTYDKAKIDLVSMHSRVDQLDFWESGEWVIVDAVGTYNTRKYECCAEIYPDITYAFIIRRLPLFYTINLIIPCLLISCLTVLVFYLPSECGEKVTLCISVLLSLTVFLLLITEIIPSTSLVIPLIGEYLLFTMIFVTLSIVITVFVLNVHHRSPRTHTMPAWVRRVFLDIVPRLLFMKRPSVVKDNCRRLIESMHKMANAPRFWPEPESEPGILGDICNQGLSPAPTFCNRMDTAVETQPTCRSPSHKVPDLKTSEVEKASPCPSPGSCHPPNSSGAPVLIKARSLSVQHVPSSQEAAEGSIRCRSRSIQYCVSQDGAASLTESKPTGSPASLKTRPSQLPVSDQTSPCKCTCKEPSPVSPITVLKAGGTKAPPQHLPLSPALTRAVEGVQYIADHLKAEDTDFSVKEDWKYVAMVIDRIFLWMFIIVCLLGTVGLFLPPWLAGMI
Sequence of β2CFP nAChR subunit (Q9ERK7 26-501): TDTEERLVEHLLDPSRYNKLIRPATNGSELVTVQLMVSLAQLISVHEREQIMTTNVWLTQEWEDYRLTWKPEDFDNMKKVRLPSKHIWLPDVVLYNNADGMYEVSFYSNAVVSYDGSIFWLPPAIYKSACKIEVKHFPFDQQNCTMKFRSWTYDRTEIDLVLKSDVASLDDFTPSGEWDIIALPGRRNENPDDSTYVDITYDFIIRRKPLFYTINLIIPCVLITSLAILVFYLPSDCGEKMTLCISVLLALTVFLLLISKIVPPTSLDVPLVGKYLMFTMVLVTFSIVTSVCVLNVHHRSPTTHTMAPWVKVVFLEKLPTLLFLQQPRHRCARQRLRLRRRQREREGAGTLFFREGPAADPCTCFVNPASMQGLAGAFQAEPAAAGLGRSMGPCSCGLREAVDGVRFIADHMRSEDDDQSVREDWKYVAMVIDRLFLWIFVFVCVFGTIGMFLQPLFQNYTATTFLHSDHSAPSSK

**Q.** How did the mean NFRET for all pixels [1] turn out when “β2CFP nAChR subunit (from UniProt Q9ERK7 26-501) (receptor)” was run?
**A.** The mean NFRET for all pixels was 0.2.

**Q.** And the mean NFRET of first Gaussian component [2]?
**A.** Its mean NFRET of first Gaussian component is 0.19.

**Q.** What about the mean NFRET of second Gaussian component [2] of the same substance?
**A.** The mean NFRET of second Gaussian component was 0.28.

— US20100209938A1
